Assay results taken from patent US20240239894A1 (AstraZeneca / MedImmune, published 2024).

How the values were obtained:
[1] = molecular target: T1, cynomolgus monkey B7-H4 on cells (cynomolgus monkey, UniProt A0A2K5U6P5 25-282); assay: cell-based or functional assay
T1 sequence: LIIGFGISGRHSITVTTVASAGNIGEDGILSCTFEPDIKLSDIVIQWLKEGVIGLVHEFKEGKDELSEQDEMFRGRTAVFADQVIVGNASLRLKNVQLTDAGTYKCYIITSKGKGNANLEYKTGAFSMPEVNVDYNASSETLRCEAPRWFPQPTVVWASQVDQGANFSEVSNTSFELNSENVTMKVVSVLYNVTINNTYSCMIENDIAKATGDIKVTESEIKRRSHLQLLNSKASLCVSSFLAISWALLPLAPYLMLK

[2] = molecular target: T2, Human B7H4 (ECD) Fc TM 6H (human, UniProt Q7Z7D3); assay: ELISA, absorbance 450 nm, Human B7H4 (ECD) Fc TM 6H; x axis printed as antigen concentration (nM)
T2 construct: ECD, native leader
T2 sequence (Q7Z7D3 whole entry, looked up): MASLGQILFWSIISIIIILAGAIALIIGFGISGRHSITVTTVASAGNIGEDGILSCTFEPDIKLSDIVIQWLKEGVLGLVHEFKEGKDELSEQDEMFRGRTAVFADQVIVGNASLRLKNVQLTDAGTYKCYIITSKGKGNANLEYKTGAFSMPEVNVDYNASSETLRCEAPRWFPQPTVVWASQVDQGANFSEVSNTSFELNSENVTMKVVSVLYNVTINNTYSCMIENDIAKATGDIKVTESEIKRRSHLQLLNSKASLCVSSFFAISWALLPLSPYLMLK

B1: E02-GL-SG3249 (antibody, human IgG1, kappa)
heavy: QVQLQQWGAGLLKPSETLSLACTVYGGSFSGYYWNWIRQPPGKGLEWIGEINHSGSTSYNPSLKSRVTISVDTSKNQFSLKLSSVTAADTAVYYCARVLYNWNVDSWGQGTLVTVSSASTKGPSVFPLAPSSKSTSGGTAALGCLVKDYFPEPVTVSWNSGALTSGVHTFPAVLQSSGLYSLSSVVTVPSSSLGTQTYICNVNHKPSNTKVDKRVEPKSCDKTHTCPPCPAPELLGGPSCVFLFPPKPKDTLMISRTPEVTCVVVDVSHEDPEVKFNWYVDGVEVHNAKTKPREEQYNSTYRVVSVLTVLHQDWLNGKEYKCKVSNKALPAPIEKTISKAKGQPREPQVYTLPPSREEMTKNQVSLTCLVKGFYPSDIAVEWESNGQPENNYKTTPPVLDSDGSFFLYSKLTVDKSRWQQGNVFSCSVMHEALHNHYTQKSLSLSPGK
light: DIQMTQSPSSLSASVGDRVTITCRASQDIRNDVGWYQQKPGKAPKRLIYAASRLQSGVPSRFSGSGSGTEFTLTISSLQPEDFATYYCLQHNSYPRTFGQGTKVEIKRTVAAPSVFIFPPSDEQLKSGTASVVCLLNNFYPREAKVQWKVDNALQSGNSQESVTEQDSKDSTYSLSSTLTLSKADYEKHKVYACEVTHQGLSSPVTKSFNRGEC
modifications: pyrrolobenzodiazepine SG3249 conjugated at the inserted cysteine of the Maia backbone
- IC50, cytotoxicity on cynomolgus B7-H4 transfected cells [1]: 0.672 ng/mL

B2: E02-maia (ZY0EQD_E02, wildtype, Maia format human IgG1) (antibody, V domains shown)
VH: QVQLQQWGAGLLKPSETLSLTCAVYGGSFSGYYWNWIRQPPGKGLEWIGEINHSGSTSYNPSLKSRVTISVDTSKNQFSLKLSSVTAADTAVYYCARVLYNWNVDSWGQGTLVTVSS
VL: DIQMTQSPSSLSASVGDRVTITCRASQDIRNDVGWYQQKPGKAPKRLIYAASRLQSGVPSRFSGSGSGTEFTLTISSLQPEDFATYYCLQHNSYPRTFGQGTKVEIKR
notes: built here from VH 33 and the Maia constant region 41
- EC50 (read off the curve) [2]: ~10 nM
